The record followed here is the supplement of paper PMC7125110.

± gives the standard error. Fewer inactive variants are shown than the library holds. A value given as a limit tells only on which side of the number the result lay.

B1: glmS ribozyme (parent)
chain: AUAAAAGCGCCAGAACUACAGAAAUGUAGUUGACGAGGAGGAGGUUUAUCGAAUUUUCGGCGGAUGCCUCCAAA

Holding throughout (conditions): with glucosamine-6-phosphate
The variants in series [1] derive from B1. Description: self-cleavage kobs at 160 uM GlcN6P; higher = faster cleavage; RNA array. In outline: (§1)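 E. coli RNA polymerase transcribed barcoded ribozyme variants in situ on sequenced MiSeq chips, which were tracked via a hybridised Cy3 probe at 37 °C. Tiles were imaged over ~14 h after glucosamine-6-phosphate (40 μM to 10 mM) in HEPES/KCl/Mg(OAc)2 buffer was flowed in. Normalised per-tile medians were fit to one- or two-exponential decays for kobs, and kcat and KM came from weighted Michaelis–Menten fits.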

Series [2] covers variants of B1. The experiment in a line: self-cleavage kobs at 2500 uM GlcN6P; higher = faster cleavage; RNA array. Put shortly:
as §1

Variants of B1 are the subject of series [3]. The experiment in a line: self-cleavage kobs at 640 uM GlcN6P; higher = faster cleavage; RNA array. Put shortly: as §1
In series [4] the parent is B1. The experiment in a line: self-cleavage kobs at 10000 uM GlcN6P; higher = faster cleavage; RNA array. Put shortly: as §1

Consider AUAAAAGCGCCAGAACUAAAGAAAUGUAGUUGACGAGGAGGAGGUUUAUCGAAUUUUCGGCGGAAGCCUCCAAA [C19A U65A], for which, in the series with glucosamine-6-phosphate [1], the “self-cleavage kobs at 160 uM GlcN6P” value was 0.000107 ± 4.8e-05 s⁻¹. Moreover, the “self-cleavage kobs at 2500 uM GlcN6P” value with glucosamine-6-phosphate [2] was 0.00137 ± 0.00051 s⁻¹.

With AUAAAAGCGCCAAAACUACAGAAAUGUAGUUGACGAGGAGGGUGUUUAUCGAAUUUUCGGCGGAUGCCUACAAA [G13A A42G G43U C70A], the “self-cleavage kobs at 160 uM GlcN6P” value with glucosamine-6-phosphate [1] was less than 1e-05 s⁻¹. Also, in the series with glucosamine-6-phosphate [3], the “self-cleavage kobs at 640 uM GlcN6P” value is less than 1e-05 s⁻¹. Moreover, in the series with glucosamine-6-phosphate [4], the “self-cleavage kobs at 10000 uM GlcN6P” value was less than 1e-05 s⁻¹.

In the case of AUAAAAGCGCCGGAACUACAGAAAUGUAGUUGACGAGGAGGAGGUUAAUCGAAUUUUCGGCGGAUGCCUUCAAA [A12G U47A C70U], the “self-cleavage kobs at 160 uM GlcN6P” value in the series with glucosamine-6-phosphate [1] was 5.89e-05 ± 2.2e-05 s⁻¹. Moreover, the “self-cleavage kobs at 640 uM GlcN6P” value with glucosamine-6-phosphate [3] was 0.000192 ± 3e-05 s⁻¹. Also, the “self-cleavage kobs at 2500 uM GlcN6P” value with glucosamine-6-phosphate [2] is 0.000394 ± 9.5e-05 s⁻¹.

Take AUAAAAGCGCCAGAAAUACAGAAAUGUAGUUGACGAGCAGGAGGUUUAUCGAAUUUUCGGCGGAUGCUUCCAAA [C16A G38C C68U]: the “self-cleavage kobs at 160 uM GlcN6P” value with glucosamine-6-phosphate [1] is less than 1e-05 s⁻¹. Besides, the “self-cleavage kobs at 640 uM GlcN6P” value with glucosamine-6-phosphate [3] is less than 1e-05 s⁻¹.

For the variant AUAAAAGCGCGAGGACUACAGAAAUGUAGUCGACGAGGAGGGGGUUUAUCGAAUUGUCGGCGGUAGCCUCCAAA [C11G A14G U31C A42G U56G A64U U65A], the “self-cleavage kobs at 160 uM GlcN6P” value with glucosamine-6-phosphate [1] was less than 1e-05 s⁻¹. In the series with glucosamine-6-phosphate [3], the “self-cleavage kobs at 640 uM GlcN6P” value is less than 1e-05 s⁻¹.

For AUAAAACCGCCAUAACUACAGAAAUGUAGUUGACGAGGAGGGGGUUUAUCGAAUUUUCGGCGGAUGCCUCCAAA [G7C G13U A42G], the “self-cleavage kobs at 160 uM GlcN6P” value in the series with glucosamine-6-phosphate [1] was less than 1e-05 s⁻¹. The “self-cleavage kobs at 10000 uM GlcN6P” value with glucosamine-6-phosphate [4] is less than 1e-05 s⁻¹.

Consider AUAAAAGCGCCAGAACUACAGAAAUGUAGUUGACGAGGAGGAGGUUUAUGGAAAUUUCGGCGGAAGCCUCCAAA [C50G U54A U65A], for which the “self-cleavage kobs at 160 uM GlcN6P” value in the series with glucosamine-6-phosphate [1] came to 0.00014 ± 3.8e-05 s⁻¹. Besides, in the series with glucosamine-6-phosphate [2], the “self-cleavage kobs at 2500 uM GlcN6P” value amounted to 5.15e-05 ± 2e-05 s⁻¹. Besides, in the series with glucosamine-6-phosphate [4], the “self-cleavage kobs at 10000 uM GlcN6P” value worked out at 5.29e-05 ± 1.5e-05 s⁻¹.

On to AUAAAAGCUCCAGAACUACAGAAAUGUAGUUGACGAGGAGGAGGCUUAUCGAAUUUUCGGCGGAUGCCUCCAAA [G9U U45C], for which the “self-cleavage kobs at 160 uM GlcN6P” value in the series with glucosamine-6-phosphate [1] is less than 1e-05 s⁻¹. Further, the “self-cleavage kobs at 640 uM GlcN6P” value in the series with glucosamine-6-phosphate [3] was less than 1e-05 s⁻¹. For the same variant, in the series with glucosamine-6-phosphate [2], the “self-cleavage kobs at 2500 uM GlcN6P” value was less than 1e-05 s⁻¹. Further, the “self-cleavage kobs at 10000 uM GlcN6P” value in the series with glucosamine-6-phosphate [4] was less than 1e-05 s⁻¹.

In the case of AUAAAAGCGCCAGAACUACAGAAAUGUAGUUGACGAGGAGGAGGUUUAUCGAAUUUUCGGCGGAUACCGCCAAA [G66A U69G], in the series with glucosamine-6-phosphate [1], the “self-cleavage kobs at 160 uM GlcN6P” value stood at 8.36e-05 ± 2.3e-05 s⁻¹. Further, the “self-cleavage kobs at 640 uM GlcN6P” value with glucosamine-6-phosphate [3] stood at 0.000427 ± 0.0001 s⁻¹. Also, the “self-cleavage kobs at 2500 uM GlcN6P” value with glucosamine-6-phosphate [2] turned out to be 0.00012 ± 2.1e-05 s⁻¹. Also, the “self-cleavage kobs at 10000 uM GlcN6P” value with glucosamine-6-phosphate [4] came to 4.74e-05 ± 1.7e-05 s⁻¹.

Regarding AUAAAAGCGCCAGAACUACAGAAAUGUAGUUGACGAGGGGGAGGUUUAUCGAAUUUUCGGCGUAUGCCUCCAAA [A39G G63U], the “self-cleavage kobs at 160 uM GlcN6P” value in the series with glucosamine-6-phosphate [1] is less than 1e-05 s⁻¹. The “self-cleavage kobs at 640 uM GlcN6P” value in the series with glucosamine-6-phosphate [3] is less than 1e-05 s⁻¹. The “self-cleavage kobs at 2500 uM GlcN6P” value with glucosamine-6-phosphate [2] is less than 1e-05 s⁻¹. Besides, the “self-cleavage kobs at 10000 uM GlcN6P” value with glucosamine-6-phosphate [4] was less than 1e-05 s⁻¹.

Turning to AUAAAAGUGCCAGAACUACAGAAAUGUAGUUGACGAGGCGGAGGUUUAUGGAAUUUUCGGGGGAUGCCUCCAAA [C8U A39C C50G C61G], in the series with glucosamine-6-phosphate [1], the “self-cleavage kobs at 160 uM GlcN6P” value is less than 1e-05 s⁻¹. Besides, the “self-cleavage kobs at 640 uM GlcN6P” value with glucosamine-6-phosphate [3] is less than 1e-05 s⁻¹. Further, the “self-cleavage kobs at 2500 uM GlcN6P” value with glucosamine-6-phosphate [2] is less than 1e-05 s⁻¹.

In the case of AUAAAAACGCCAGAACUACAGAAAUGUAGUCGACGAGGAGGAGGUUUAUCGAAUUUUCGGCGGAUGCCUCCAAA [G7A U31C], the “self-cleavage kobs at 160 uM GlcN6P” value in the series with glucosamine-6-phosphate [1] is less than 1e-05 s⁻¹. Also, in the series with glucosamine-6-phosphate [3], the “self-cleavage kobs at 640 uM GlcN6P” value is less than 1e-05 s⁻¹.

With AUAAAAGCGCCAGAACUACAGAAAUGUAGUUGACGAGGAGGAGGUUUAUCGAAUUUUCGUCGCAUGCCUGCAAA [G60U G63C C70G], the “self-cleavage kobs at 160 uM GlcN6P” value in the series with glucosamine-6-phosphate [1] was less than 1e-05 s⁻¹. Moreover, the “self-cleavage kobs at 640 uM GlcN6P” value in the series with glucosamine-6-phosphate [3] was less than 1e-05 s⁻¹.

Turning to AUAAAAGCGCCAGAACUACAGAAAUGUAGUUGACGAGGUGAAGGUUUAUCGAAUUUUCGGCUGAUGCCUCCAAA [A39U G41A G62U], the “self-cleavage kobs at 160 uM GlcN6P” value in the series with glucosamine-6-phosphate [1] was less than 1e-05 s⁻¹. For the same variant, in the series with glucosamine-6-phosphate [2], the “self-cleavage kobs at 2500 uM GlcN6P” value is less than 1e-05 s⁻¹.
